# Laboratory results from patent US20250027068A1.
# Substitutions are numbered along the chain they refer to.
# B1: VRT-33 (Fc fusion)
# chain: SQTEDSESLQRLRDIEDFQAEKKKQNVVYTKWLDGVDVKDHDFRKIVDGNIAYYATPLLNGRGFYDINKDFNRDNDKCAAAVAANMFHYWLDRNRDNVDRFLRQNPEKHGIIELPDGQLKLSDFLNTYESDDGYRDKSKLFDFISNNFNGPVWTDKLLDNYINGYAYNYKYGRTIEDSTKNTSKINFFKEVFNEKILTNNHSIRNQNEFSVLLSEALYTGKAIGLSYGPAGLRHSLGHIISVWGADLDADGNVVAIYVTDSDDKKLTIGDERVGLKRYKISTDDEGRLRLTAYEETHNTGGQIRGLWTLDTGKQAWADYFDKTEQTGTDQAEQDKTHTCPPCPAPEAAGAPSVFLFPPKPKDTLMISRTPEVTCVVVDVSHEDPEVKFNWYVDGVEVHNAKTKPREEQQNSTYRVVSVLTVLHQDWLNGKEYKCKVSNKALKAPIEKTISKAKGQPREPQVYTLPPSRDELTKNQVSLTCLVKGFYPSDIAVEWESNGQPENNYKTTPPVLDSDGSFFLYSKLTVDKSRWQQGNVFSCSVMHEALHNHYTQKSLSLSPG
# B2: VRT-34 (Fc fusion)
# chain: B1 chain with R93I, D132H
# B3: VRT-40 (Fc fusion)
# chain: TITSVWTKGVTPPTPEDFRYYNEDVLHAPYVANQGWYDITKTFDGKDNLLCGAATAGNMLHWWFDQNKEEIERYLKKHPEKQKIIFKNQELFDVKAAIDTKDSQTNSKLFNYFRDKAFPGLSARQLGVFPDLVLDMFINGYYLNLGKTQSTDVNRPYQDKDKRGGIFDAVFTRGVQTTLLTARHDLKNKGLNEISDLIKQELTEGKALALSHTYANVRINHVINLWGADFDAEGNLIAIYVTDSDTRASIGMKKYFVGVNANGKVAISAKKIEGDNIGAQVLGLFTLSTGQDIWQKLSDKTHTCPPCPAPEAAGAPSVFLFPPKPKDTLMISRTPEVTCVVVDVSHEDPEVKFNWYVDGVEVHNAKTKPREEQQNSTYRVVSVLTVLHQDWLNGKEYKCKVSNKALKAPIEKTISKAKGQPREPQVYTLPPSRDELTKNQVSLTCLVKGFYPSDIAVEWESNGQPENNYKTTPPVLDSDGSFFLYSKLTVDKSRWQQGNVFSCSVMHEALHNHYTQKSLSLSPG
# B4: VRT-39 (Fc fusion)
# chain: ITSVWTKGVTPPAKFTQGEDVFHAPYVANQGWYDITKTFNRKDNLLCGAATAGNMLHWWFDQNKEEIEAYLKKHPEKQKIIFGDQELLDVRKVINTKDSQTNSALFNYFKDKAFPNLSARRLGVFPDLVLDMFINGYYLNVYKTQTTDVNRTYQTKDRRGGIFDAVFTRGVQSKLLTERHDFKEKTLKEISDLIKQELTEGKALGLSHTYANVRINHVINLWGADFDSNGNLEAIYVTDSDTRASIGMKKYFVGVNAAGKVAISAKEIKEDNIGAQVLGLFTLSTGQDIWNQTNDKTHTCPPCPAPEAAGAPSVFLFPPKPKDTLMISRTPEVTCVVVDVSHEDPEVKFNWYVDGVEVHNAKTKPREEQQNSTYRVVSVLTVLHQDWLNGKEYKCKVSNKALKAPIEKTISKAKGQPREPQVYTLPPSRDELTKNQVSLTCLVKGFYPSDIAVEWESNGQPENNYKTTPPVLDSDGSFFLYSKLTVDKSRWQQGNVFSCSVMHEALHNHYTQKSLSLSPG
# B5: VRT-35 (Fc fusion)
# chain: VTSVWTKGVTPPANFTQGEDVFHAPYKANQGWYDITKTFNRKDNLLCGAATAGNMLHWWFDQNKDQIEAYLKEHPEKQKINFKGEQLFDVKEAIDTKDDQTNSKLFEYFKEKAFPYLSTKHLGVFPDHVLDMFINGYRLSLTNHGPTPVKEGSKDKRGGIFDAVFTRGVQSKLLTSRHDFKEKTLKEISDLIKQELTEGKALALSHTYANVRINHVINLWGADFDSNGNLEAIYVTDSDTEASIGMKKYFVGVNKAGKVAISAKEIEDDNIGAQVLGLFTLSTGQDIWNQTNDKTHTCPPCPAPEAAGAPSVFLFPPKPKDTLMISRTPEVTCVVVDVSHEDPEVKFNWYVDGVEVHNAKTKPREEQQNSTYRVVSVLTVLHQDWLNGKEYKCKVSNKALKAPIEKTISKAKGQPREPQVYTLPPSRDELTKNQVSLTCLVKGFYPSDIAVEWESNGQPENNYKTTPPVLDSDGSFFLYSKLTVDKSRWQQGNVFSCSVMHEALHNHYTQKSLSLSPG
# B6: VRT-36 (Fc fusion)
# chain: B5 chain with K27V, A69R, D99S, N102D, A203G, N227E, E231K, E267K, D268E
# B7: VRT-37 (Fc fusion)
# chain: VTSVWTKGVTPPTNFTYGEDVLHAPYVANQGWYDITKTFNRKDNLLCGAATAGNMLHWWFDQNKEQIENYLKKHPEKQKINFKGEQLFDVKEAIDTKDSQLDSKLFEYFKEKAFPYLSTKHLGVFPDHVIDMFINGYRLSLTNHGPTPVKRGSKDKRGGIFDAVFTRGVQSKLLTNRHDFKEKTLKEISDLIKQELTEGKALGISHTYANVRINHVINLWGADFDAEGNLEAIYVTDSDTEASIGMKKYFVGVNKNGKVAISAKEIEEDNIGAQVLGLFTLSTGQDIWNQTNDKTHTCPPCPAPEAAGAPSVFLFPPKPKDTLMISRTPEVTCVVVDVSHEDPEVKFNWYVDGVEVHNAKTKPREEQQNSTYRVVSVLTVLHQDWLNGKEYKCKVSNKALKAPIEKTISKAKGQPREPQVYTLPPSRDELTKNQVSLTCLVKGFYPSDIAVEWESNGQPENNYKTTPPVLDSDGSFFLYSKLTVDKSRWQQGNVFSCSVMHEALHNHYTQKSLSLSPG
# B8: VRT-38 (Fc fusion)
# chain: VTSVWTKGVTPPADFTQGEDVFHAPYVANQGWYDITKTFNRKDNLLCGAATAGNMLHWWFDQNKEYIEAYLKKHPEKQKIIFGDQELLDVRKAINTKGSQKNSELFNYFRDKAFPNLSARRLGVFPDLVLDMFINGYYLNVTKTQTTDVNRTYQEKDKRGGIFDAVFTRGVQSKLLTSRHDFKEKGLKEISDLIKQELTEGKALGLSHTYANVRINHVINLWGADFDSDGNLKAIYVTDSDTRASIGMKKYFVGVNAAGKVAISAKEIKEDNIGAQVLGLFTLSTGQDIWNQTNDKTHTCPPCPAPEAAGAPSVFLFPPKPKDTLMISRTPEVTCVVVDVSHEDPEVKFNWYVDGVEVHNAKTKPREEQQNSTYRVVSVLTVLHQDWLNGKEYKCKVSNKALKAPIEKTISKAKGQPREPQVYTLPPSRDELTKNQVSLTCLVKGFYPSDIAVEWESNGQPENNYKTTPPVLDSDGSFFLYSKLTVDKSRWQQGNVFSCSVMHEALHNHYTQKSLSLSPG
# Target: pooled human IgG (human)
# Experiment: cell-based or functional assay
Binder,Enzyme Activity Endpoint Assay: Fab′2 [ng/µL],Enzyme Activity Endpoint Assay: Fc [ng/µL],Enzyme Activity Endpoint Assay: IgG [ng/µL],Enzyme Activity Endpoint Assay: scIgG [ng/µL]
B1,0,5,1040,21
B2,0,5,1020,20
B3,63,243,167,222
B4,0,27,1020,22
B5,0,25,1020,22
B6,0,112,1030,62
B7,0,101,854,38
B8,0,27,990,20
